Experimental data: patent US20230295310A1 (ABCELLERA BIOLOGICS, published 2023)
Changes are numbered by the printed parent chain.

B1: mAb 49 (antibody, V domains shown)
VH: EVQLVESGGGLVPPGGSLRLSCVASGFTLRSYTMNWVRQAPGQGLEWISYISSTSRTIYYSDSVKGRFTISRDNAKNSLYLQVNSLRDEDTALYYCAREDYYDSSGFDCWGQGTLVTVSS
VL: AIRMTQSPSSFSASTGDRVTITCRASQGIFNYLAWYQQKPGKAPKLLIYSTSTLQSGVPSRFSGSGSGTDFTLTIRGLQSEDLATYYCQQYYSFPRTFGQGTKVDIK
notes: VH and VL only
B2: mAb 111 (antibody, V domains shown)
VH: EVQLVESGGVLVKTGGSLRLSCVASGFSFKKAWMNWVRQAPGKGLEWVGRIKRNSDGGAADYAAPVKDRFTLSRDDSKNTLYLQMNSLKTEDTAVYYCTTLDSSSWYVGYYYMDVWGKGTTVTVSS
VL: DIHMTQSPSSVSASLGDRVTFTCRASQNINNWLAWYQQKPGKAPKLLIYTASSLQSGVPSRFSGSGSGTDFTLTISSLQPDDFATYYCQQAHSLPITFGQGTRLGIK
notes: VH and VL only
B3: mAb 123 (antibody, V domains shown)
VH: DVQLVESGGGTVKTGGSLRLSCVASGFSFKKAWMNWVRQAPGKGLEWVGRIKKNSDDGTADYAAPVKGRFTISRDDSKRTLFLQMNSLQTEDTAVYYCTTLDSSSWFVGYYYMDVWGKGTTVTVSS
VL: B2 VL with H3Q, L15V, T20I, F21I, N28D, G68V, T69S, S76D, D81E, G105E
notes: VH and VL only
B4: mAb 127 (antibody, V domains shown)
VH: B2 VH with V10G, L18H, A59T, A60T, D68G, T71I
VL: DIQMTQSPSSVSASVGDRVTITCRASQDINNWLAWYQQKPGKAPKILIYTASNLQSGVPSRFSGSGSGTDFTLTISTLQPEDFATYFCQQAHGLPITFGQGTRLEIK
notes: VH and VL only
B5: mAb 129 (antibody, V domains shown)
VH: B2 VH with V10D, S55T, A60T
VL: B2 VL with N28D, K45R, K107E
notes: VH and VL only
B6: mAb 288 (antibody, V domains shown)
VH: EVQLLESGGNLGQPGGSLRLSCAVSGFTFSSYTMSWVRQAPGKGLEWVSAISGSGGRTYYADSVKGRFTISRDNSKNTLYLQMKSLRAEDTAVYYCAKKFSYYYYYMDVWGKGTTVTVSS
VL: SYELTQPLSVSVALGQTARITCGGNNIGSKDVHWYQQKPGQAPVLVIYRDSNRPSGIPERFSGSNSGNTATLTISSAQAGDEADYYCQVWDSNTAVFGGGTQLTAL
notes: VH/VL only
B7: mAb 265 (antibody, V domains shown)
VH: EVQLLESGGGLVQPGGSLRLSCAASGFTFRSSSMTWVRQAPGKGLEWVSGIRGSGGRTYDAESVKGRFTISRDNSKNTLYLQMNSLRAEDTAEYFCAKLYDYYNDYMDVWGKGTTVTVSS
VL: B6 VL with D31N, S76R, N93S
notes: VH/VL only
B8: mAb 190 (antibody, V domains shown)
VH: QVQLVESGGGVVQPGRSLRLSCAASGFTFSGYGMHWVRQAPGKGLEWVAIIYYNGKKEYYADSVKGRFTISRDNSKNTLYLQMNSLRAEDTAVYYCTRGEGYNWFDPWGQGTLVTVSS
VL: EIVMTQSPATLSVSPGERATLSCRASQSVSSNLAWYQQKPGQAPRLLIYGASTRATGIPARFSGSGSGTEFTLTISSLQSEDFAVYYCKQYNNWPLTFGGGTKVEIK
notes: VH/VL only
B9: mAb 239 (antibody, V domains shown)
VH: B8 VH with V2E, Q3K, A23V, Y32F, N54D, K57N, E58K, T97V, E100P
VL: EIVLTQSPDFQSVTPKEKVTITCRASQSIGSSLHWYQQKPDQSPKLLIKYASQSFSGVPSRFSGSGSGTDFTLTINSLEAEDAATYYCHQSSSLPYTFGQGTKLEIK
notes: VH/VL only
B10: mAb 247 (antibody, V domains shown)
VH: B8 VH with V2E, T28I, G31S, Y52W, E58R, Y59D, T97A, E100L
VL: B9 VL with E17D, S93T
notes: VH/VL only
B11: mAb 234 (antibody, V domains shown)
VH: B8 VH with V2E, T28I, G31S, Y52W, E58R, Y59D, A88V, T97A, E100L, P107S
VL: B9 VL
notes: VH/VL only
B12: mAb 232 (antibody, V domains shown)
VH: B8 VH with V2E, G31S, Y52W, K56R, E58K, Y59D, T97A, E100L
VL: B9 VL with K16M, T22A
notes: VH/VL only
B13: mAb 223 (antibody, V domains shown)
VH: QVQLVESGGGVVQPGRSLRLSCAASGFTFSGYGMHWVRQAPGKGLEWVAIIYYNGNNRKYADSVKGRFTISRDNSKNMVSLQMNSLRVEDTAIYYCTRGDGYNWFVTWGQGTLVTVSS
VL: B8 VL with R18G, Q37H, A60V, E81D, Y87F, K89Q
notes: VH/VL only
B14: mAb 249 (antibody, V domains shown)
VH: B8 VH with V2E, S30R, G31S, Y52W, N54D, K57N, E58K, T97A, E100L
VL: B9 VL
notes: VH/VL only
B15: mAb 211 (antibody, V domains shown)
VH: B8 VH with K57R
VL: B8 VL with Q90H
notes: VH/VL only
B16: mAb 244 (antibody, V domains shown)
VH: QEQLVESGGGVVQPGRSLRLSCAASGFTFRSYGMHWVRQAPGKGLEWVAIIWYDGKNKYYADSVKGRFTISRDNSKNTLYLQMNSLRVEDTAVYYCARGLGYNWFDPWGQGTLVTVTS
VL: B9 VL with S54T, A80V, Y96N
notes: VH/VL only
B17: mAb 200 (antibody, V domains shown)
VH: B8 VH with V5A, Y95F
VL: B8 VL with N92K
notes: VH/VL only
B18: mAb 202 (antibody, V domains shown)
VH: B8 VH with Y95F
VL: B8 VL with N92K
notes: VH/VL only
B19: mAb 231 (antibody, V domains shown)
VH: B8 VH with V2E, G31S, E58K, Y59D, T97V, E100L
VL: B9 VL with S93N
notes: VH/VL only
B20: mAb 207 (antibody, V domains shown)
VH: B8 VH with K76R, Y80F, V93I
VL: B8 VL with Q79L
notes: VH/VL only
B21: mAb 227 (antibody, V domains shown)
VH: B16 VH with T28I, R30S, D54N, N57K, K58R, Y59D, V88A, T117S
VL: B9 VL
notes: VH/VL only
B22: mAb 208 (antibody, V domains shown)
VH: B16 VH with R30S, D54N, N57K, Y59D, N77S, V88A, T117S
VL: B9 VL with K16M, T22A, S28N, L94F, Y96N
notes: VH/VL only
B23: mAb 241 (antibody, V domains shown)
VH: B16 VH with T28I, R30S, D54N, N57K, K58R, Y59D, V88A, T117S
VL: B9 VL with E1A, S28N, S92G
notes: VH/VL only
B24: mAb 246 (antibody, V domains shown)
VH: B16 VH with V88A, T117S
VL: B9 VL with A51G
notes: VH/VL only
B25: mAb 233 (antibody, V domains shown)
VH: QGKLVESGGGVVQPGRSLRLSCVASGFTFSGYGMHWVRQVPNKGLEWVAIIYYDGKNKYYADSVKGRFTISRDNSKNMLYLQMNSLRAEDTAVYYCVRGPGYNWFDPWGQGTLVTVSS
VL: B9 VL with S28N, Y50L, A51T
notes: VH/VL only
B26: mAb 235 (antibody, V domains shown)
VH: B25 VH with V40A, I70V, M78T, M83L, S85N
VL: B9 VL with S28N, L47F, Y50H
notes: VH/VL only

The binders below were run against T1, human CD3e/d (human, UniProt P07766 23-126; P04234 22-105) (assay: SPR (Carterra LSA), mAb on chip).
T1 construct: Bought soluble protein; also called hCD3e/d; human CD3/ed (Sino CT038-H2508H)
T1 sequence (P07766 23-126, chain 1 of 2): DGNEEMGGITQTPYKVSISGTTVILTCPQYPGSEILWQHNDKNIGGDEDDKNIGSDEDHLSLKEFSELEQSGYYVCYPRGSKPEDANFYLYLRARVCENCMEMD
T1 sequence (P04234 22-105, chain 2 of 2): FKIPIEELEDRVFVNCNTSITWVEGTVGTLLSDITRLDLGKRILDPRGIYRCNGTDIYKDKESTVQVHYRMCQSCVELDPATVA
Method in brief: (§1)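 Purified mAbs amine-coupled (EDC/S-NHS) at 10 μg/mL in 10 mM NaOAc pH 4.25 onto an HC-30M chip, with benchmark and negative-control mAbs; analyte flowed over the array. Double-referenced sensorgrams fitted globally to a 1:1 Langmuir model for ka, kd and KD.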
Binder B1 has a Kd of 10.8 nM.
For B2, the Kd was 19.6 nM.
B3 was tested, and the Kd was 56.1 nM.
B4 was tested, and the Kd was 65 nM.
B5 was tested, and the Kd was 26.4 nM.

Each binder was assayed against T2, human CD3e/g (human, UniProt P07766 23-126; P09693 23-116) (assay: SPR (Carterra LSA), mAb on chip).
T2 construct: Bought soluble protein; also called hCD3e/g; human CD3e/g (Acro CDD-C52W4)
T2 sequence (P07766 23-126, chain 1 of 2): as the sequence (P07766 23-126, chain 1 of 2) above
T2 sequence (P09693 23-116, chain 2 of 2): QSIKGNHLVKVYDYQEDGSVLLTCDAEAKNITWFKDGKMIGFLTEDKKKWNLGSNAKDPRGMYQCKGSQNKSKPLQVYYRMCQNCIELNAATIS
Method in brief: as §1
For B1, the Kd was 3.64 nM.
B2 was tested, and the Kd was 7.44 nM.
B3 gave a Kd of 16.6 nM.
In the case of B4, the Kd is reported as 15.4 nM.
Work on B5 yielded a Kd of 6.62 nM.

These binders were tested against T3, cynomolgus monkey CD3 expressed on cyno primary T cells (cynomolgus monkey, UniProt Q95LI5 22-198; Q95LI8 22-171; Q95LI7 23-181) (assay: flow cytometry, cyno primary T cells).
T3 construct: whole, on cells; CD3 complex on purified cynomolgus monkey CD3 pan T cells; also called cyno CD3
T3 sequence (Q95LI5 22-198, chain 1 of 3): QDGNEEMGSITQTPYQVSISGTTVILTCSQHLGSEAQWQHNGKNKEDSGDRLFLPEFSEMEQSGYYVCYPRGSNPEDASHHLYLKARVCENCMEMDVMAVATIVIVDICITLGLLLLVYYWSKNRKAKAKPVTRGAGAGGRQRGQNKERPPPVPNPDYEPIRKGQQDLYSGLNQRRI
T3 sequence (Q95LI8 22-171, chain 2 of 3): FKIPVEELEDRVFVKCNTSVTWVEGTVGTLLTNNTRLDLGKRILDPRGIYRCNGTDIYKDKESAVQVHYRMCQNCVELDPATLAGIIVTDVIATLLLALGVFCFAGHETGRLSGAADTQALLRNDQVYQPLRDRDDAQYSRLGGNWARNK
T3 sequence (Q95LI7 23-181, chain 3 of 3): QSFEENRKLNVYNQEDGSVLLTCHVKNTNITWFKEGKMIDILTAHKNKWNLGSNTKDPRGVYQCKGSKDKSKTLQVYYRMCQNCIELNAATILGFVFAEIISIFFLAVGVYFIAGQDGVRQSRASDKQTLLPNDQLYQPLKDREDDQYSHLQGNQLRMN
Method: Purified antibodies were confirmed to bind CD3 expressed on cells using the CytoFLEX S or LX flow cytometers (Beckman Coulter). Antibodies were diluted to 25 nM in FACS buffer (PBS+2% FBS) and were incubated with CD3-expressing cells for 30 minutes at 4° C. […] The median fluorescence intensity of the binding signal for each antibody was normalized to the isotype control to obtain a fold over isotype value. An antibody with a fold over isotype (FOI) of ≥10 was considered to be positive for binding.
B6: no binding (tested: FOI <10 (FOI >=10 = positive); 25 nM).
B7: no binding (tested: FOI <10 (FOI >=10 = positive); 25 nM).
B8: no binding (tested: FOI <10 (FOI >=10 = positive); 25 nM).
B9: no binding (tested: FOI <10 (FOI >=10 = positive); 25 nM).
B10: no binding (tested: FOI <10 (FOI >=10 = positive); 25 nM).
B11: no binding (tested: FOI <10 (FOI >=10 = positive); 25 nM).
B12: no binding (tested: FOI <10 (FOI >=10 = positive); 25 nM).
B13: no binding (tested: FOI <10 (FOI >=10 = positive); 25 nM).
B14: no binding (tested: FOI <10 (FOI >=10 = positive); 25 nM).
B15: no binding (tested: FOI <10 (FOI >=10 = positive); 25 nM).
B16: no binding (tested: FOI <10 (FOI >=10 = positive); 25 nM).
B17: no binding (tested: FOI <10 (FOI >=10 = positive); 25 nM).
B18: no binding (tested: FOI <10 (FOI >=10 = positive); 25 nM).
B19: no binding (tested: FOI <10 (FOI >=10 = positive); 25 nM).
B20: no binding (tested: FOI <10 (FOI >=10 = positive); 25 nM).
B21: no binding (tested: FOI <10 (FOI >=10 = positive); 25 nM).
B22: no binding (tested: FOI <10 (FOI >=10 = positive); 25 nM).
B23: no binding (tested: FOI <10 (FOI >=10 = positive); 25 nM).
B24: no binding (tested: FOI <10 (FOI >=10 = positive); 25 nM).
B25: no binding (tested: FOI <10 (FOI >=10 = positive); 25 nM).
B26: no binding (tested: FOI <10 (FOI >=10 = positive); 25 nM).
